The target in this data set is Interleukin 6 (IL-6) (Homo sapiens, UniProt P05231 30-212). As to the kind of experiment: SiNW-FET (gate voltage shift); aptamer immobilized on mSAMs-GA; IL-6 in PBS pH 7.4, 30 min; valid signal from 100 fM (2.1 pg/mL), approx. linear to 10 nM; no Kd; IL-6 in PBS pH 7.4, 30 min incubation, PBS wash; readout in 10 mM bis-tris propane pH 7.4; temperature of binding not stated. The conditions noted are these: protein: commercial.
Interleukin 6 (IL-6), sequence (P05231 30-212): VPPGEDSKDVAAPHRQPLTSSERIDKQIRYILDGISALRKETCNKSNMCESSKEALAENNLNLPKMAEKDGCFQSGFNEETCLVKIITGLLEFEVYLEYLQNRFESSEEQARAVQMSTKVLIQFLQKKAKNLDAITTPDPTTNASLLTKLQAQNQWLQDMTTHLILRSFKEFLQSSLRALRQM

Turning to GGTGGCAGGAGGACTATTTATTTGCTTTTCT (ssDNA, 5'-NH2-C6, covalently immobilized via glutaraldehyde on mixed-SAM SiNW-FET) [anti-IL-6 aptamer (31 nt)], the binding result is reported as “binds”.

Source of the values: article PMC9865274, “Ultrasensitive Detection of Interleukin 6 by Using Silicon Nanowire Field-Effect Transistors”.
